Measurements taken from publication PMC4942676.

Columns and labels:
[1] = target: FLAG-tagged construct containing the Omp25 TMD, translated in the PURE system; experiment: co-sedimentation; Omp25 TMD construct translated in the PURE system with 35S-methionine and 15 uM recombinant chaperone; sucrose gradient, autoradiography
[2] = target: UBQLN1 loaded with Ub-Omp25 (UniProt Q9UMX0); experiment: pull-down; client (Omp25 or Ub-Omp25) translated in lysate lacking ubiquitin, UbcH5 and the major TMD-binding factors, supplemented with 40 nM recombinant FLAG-tagged UBQLN1 variant; affinity purified via the FLAG tag; autoradiography for the client, immunoblot for proteasome subunit α7
[3] = target: UBQLN UBL domain UBL (Homo sapiens) (UniProt Q9UMX0); conditions: cited from earlier work

For “recombinant UBQLN1 (FLAG-tagged) (from UniProt Q9UMX0 1-589) (natural protein)”, which stoichiometry N [1] is on record?
The stoichiometry N was 1.

For “proteasome, endogenous in rabbit reticulocyte lysate (from UniProt G1SZ14 1-326) (complex)”, which fold proteasome association relative to UBQLN1 loaded with Omp25 [2] is on record?
The fold proteasome association relative to UBQLN1 loaded with Omp25 was 2 to 3 fold.

For “UBQLN UBA domain UBA (from UniProt Q9UMX0)”, which Kd [3] is on record?
The Kd was 80 µM.
